Laboratory results as given in patent US7657380.
Positions count from the first letter of the chain named.

Legend:
[1] = target: T1, CD30 fused to the Fc region of IgG1 (R&D Systems) (UniProt P28908 19-379); experiment: SPR, CD30-Fc on Protein A chip
T1 sequence (looked up): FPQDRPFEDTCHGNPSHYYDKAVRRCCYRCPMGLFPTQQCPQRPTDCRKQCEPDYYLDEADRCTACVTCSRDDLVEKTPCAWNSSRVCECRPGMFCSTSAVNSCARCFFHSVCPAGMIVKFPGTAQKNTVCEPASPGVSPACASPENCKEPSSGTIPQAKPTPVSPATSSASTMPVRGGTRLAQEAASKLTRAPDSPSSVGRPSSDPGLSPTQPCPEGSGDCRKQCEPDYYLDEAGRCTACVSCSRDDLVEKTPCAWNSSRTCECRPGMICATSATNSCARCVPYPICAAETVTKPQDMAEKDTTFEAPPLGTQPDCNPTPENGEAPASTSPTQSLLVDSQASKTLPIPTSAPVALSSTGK

[2] = target: T2, human CD30 (commercial, conjugated to digoxigenin) (human, UniProt P28908 19-379, limits assumed, conjugated to digoxigenin (DIG)); experiment: AlphaScreen competition vs biotin-WT AC10
T2 sequence (looked up): T1 sequence (looked up)

[3] = target: T2, human CD30 (commercial, conjugated to …); experiment: AlphaScreen competition

B1: AC10 H2/L1 full length antibody (antibody, V domains shown)
VH: QIQLVESGGGLVKPGGSLRLSCAASGYTFTDYYITWVRQAPGQGLEWMGWIYPGSGNTKYNEKFQGRVTMTVDTSTSTAYMELSSLRSEDTAVYFCANYGNYWFAYWGQGTLVTVSS
VL: DIVLTQSPATLSLSPGERATLSCRASQSVDFDGDSYMNWYQQKPGQPPKVLIYAASNLESGIPARFSGSGSGTDFTLTISSLQPEDFATYYCQQSNEDPWTFGGGTKVEIK
- Fold KD vs WT [1]: 0.36 fold
- Kd [1]: 9.49 nM
- Fold IC50 vs WT [2]: 0.06 fold
- IC50 [2]: 55.1 nM

B2: AC10 H0/L2 full length antibody (antibody, V domains shown)
VH: QIQLQQSGPEVVKPGASVKISCKASGYTFTDYYITWVKQKPGQGLEWIGWIYPGSGNTKYNEKFKGKATLTVDTSSSTAFMQLSSLTSEDTAVYFCANYGNYWFAYWGQGTQVTVSA
VL: B1 VL with A9S, T10S, L13A, P15V, E17D, A19V, L21I, S22T
- Fold KD vs WT [1]: 0.97 fold
- Kd [1]: 3.48 nM
- Fold IC50 vs WT [2]: 0.41 fold
- IC50 [2]: 7.81 nM

B3: AC10 H0/L1 full length antibody (antibody, V domains shown)
VH: B2 VH
VL: B1 VL
- Fold KD vs WT [1]: 1.03 fold
- Kd [1]: 3.29 nM
- Fold IC50 vs WT [2]: 0.61 fold
- IC50 [2]: 5.19 nM

B4: AC10 H2/L2 full length antibody (antibody, V domains shown)
VH: B1 VH
VL: B1 VL with A9S, T10S, L13A, P15V, E17D, A19V, L21I, S22T
- Fold KD vs WT [1]: 0.57 fold
- Kd [1]: 5.95 nM
- Fold IC50 vs WT [2]: 0.06 fold
- IC50 [2]: 49.2 nM

B5: AC10 H1/L3 full length antibody (antibody, V domains shown)
VH: QIQLVQSGPEVKKPGASVKVSCKASGYTFTDYYITWVRQAPGQGLEWMGWIYPGSGNTKYNEKFQGRVTITVDTSASTAYMELSSLRSEDTAVYFCANYGNYWFAYWGQGTLVTVSS
VL: DIVLTQSPDSLAVSLGERATINCKASQSVDFDGDSYMNWYQQKPGQPPKVLIYAASNLESGIPARFSGSGSGTDFTLTINSLEAEDAATYYCQQSNEDPWTFGGGTKVEIK
- Fold KD vs WT [1]: 0.67 fold
- Kd [1]: 5.09 nM
- Fold IC50 vs WT [2]: 0.18 fold
- IC50 [2]: 17.4 nM

B6: AC10 H2/L0 full length antibody (antibody, V domains shown)
VH: B1 VH
VL: B5 VL with D9A, E17Q, N22S, T78N, N80H, S81P, L82V, A84E, V108L
- Fold KD vs WT [1]: 0.42 fold
- Kd [1]: 8 nM
- Fold IC50 vs WT [2]: 0.16 fold
- IC50 [2]: 19.4 nM

B7: AC10 H3/L3 full length antibody (antibody, V domains shown)
VH: B5 VH with V68F, T69V, I70F, T71S, M81L, E82Q, L83I, R87K, S88A
VL: B5 VL
- Fold KD vs WT [1]: 1.45 fold
- Kd [1]: 2.33 nM
- Fold IC50 vs WT [2]: 1.59 fold
- IC50 [2]: 1.99 nM

B8: AC10 H3/L2 full length antibody (antibody, V domains shown)
VH: B5 VH with V68F, T69V, I70F, T71S, M81L, E82Q, L83I, R87K, S88A
VL: B1 VL with A9S, T10S, L13A, P15V, E17D, A19V, L21I, S22T
- Fold KD vs WT [1]: 1.19 fold
- Kd [1]: 2.86 nM
- Fold IC50 vs WT [2]: 0.48 fold
- IC50 [2]: 6.57 nM

B9: AC10 H3/L0 full length antibody (antibody, V domains shown)
VH: B5 VH with V68F, T69V, I70F, T71S, M81L, E82Q, L83I, R87K, S88A
VL: B5 VL with D9A, E17Q, N22S, T78N, N80H, S81P, L82V, A84E, V108L
- Fold KD vs WT [1]: 1.1 fold
- Kd [1]: 3.08 nM
- Fold IC50 vs WT [2]: 0.51 fold
- IC50 [2]: 6.18 nM

B10: AC10 H3/L3.56 (antibody, IgG1, name in Kabat numbering, V domains shown)
VH: B5 VH with V68F, T69V, I70F, T71S, M81L, E82Q, L83I, R87K, S88A
VL: B5 VL with E97N
- Fold IC50 vs H3/L3 [3]: 0.64 fold

B11: AC10 H2/L3 full length antibody (antibody, V domains shown)
VH: B1 VH
VL: B5 VL
- Fold KD vs WT [1]: 0.5 fold
- Kd [1]: 6.75 nM
- Fold IC50 vs WT [2]: 0.12 fold
- IC50 [2]: 27.2 nM

B12: AC10 H3/L3.66 (antibody, IgG1, name in Kabat numbering, V domains shown)
VH: B5 VH with V68F, T69V, I70F, T71S, M81L, E82Q, L83I, R87K, S88A
VL: B5 VL with W100I
- Fold IC50 vs H3/L3 [3]: 0 fold

B13: AC10 H3/L3.63 (antibody, IgG1, name in Kabat numbering, V domains shown)
VH: B5 VH with V68F, T69V, I70F, T71S, M81L, E82Q, L83I, R87K, S88A
VL: B5 VL with D98S
- Fold IC50 vs H3/L3 [3]: 0.57 fold

B14: AC10 H1/L2 full length antibody (antibody, V domains shown)
VH: B5 VH
VL: B1 VL with A9S, T10S, L13A, P15V, E17D, A19V, L21I, S22T
- Fold KD vs WT [1]: 0.45 fold
- Kd [1]: 7.55 nM
- Fold IC50 vs WT [2]: 0.07 fold
- IC50 [2]: 45.3 nM

B15: AC10 H3/L3.64 (antibody, IgG1, name in Kabat numbering, V domains shown)
VH: B5 VH with V68F, T69V, I70F, T71S, M81L, E82Q, L83I, R87K, S88A
VL: B5 VL with D98T
- Fold IC50 vs H3/L3 [3]: 0.14 fold

B16: AC10 H3/L3.62 (antibody, IgG1, name in Kabat numbering, V domains shown)
VH: B5 VH with V68F, T69V, I70F, T71S, M81L, E82Q, L83I, R87K, S88A
VL: B5 VL with D98L
- Fold IC50 vs H3/L3 [3]: 0.46 fold

B17: AC10 H3/L1 full length antibody (antibody, V domains shown)
VH: B5 VH with V68F, T69V, I70F, T71S, M81L, E82Q, L83I, R87K, S88A
VL: B1 VL
- Fold KD vs WT [1]: 1.39 fold
- Kd [1]: 2.44 nM
- Fold IC50 vs WT [2]: 0.52 fold
- IC50 [2]: 6.09 nM

B18: AC10 H3/L3.58 (antibody, IgG1, name in Kabat numbering, V domains shown)
VH: B5 VH with V68F, T69V, I70F, T71S, M81L, E82Q, L83I, R87K, S88A
VL: B5 VL with E97S
- Fold IC50 vs H3/L3 [3]: 0.49 fold

B19: AC10 H3/L3.55 (antibody, IgG1, name in Kabat numbering, V domains shown)
VH: B5 VH with V68F, T69V, I70F, T71S, M81L, E82Q, L83I, R87K, S88A
VL: B5 VL with E97K
- Fold IC50 vs H3/L3 [3]: 0.27 fold

B20: AC10 H3/L3.54 (antibody, IgG1, name in Kabat numbering, V domains shown)
VH: B5 VH with V68F, T69V, I70F, T71S, M81L, E82Q, L83I, R87K, S88A
VL: B5 VL with N96Y
- Fold IC50 vs H3/L3 [3]: 0.96 fold

B21: AC10 H3/L3.65 (antibody, IgG1, name in Kabat numbering, V domains shown)
VH: B5 VH with V68F, T69V, I70F, T71S, M81L, E82Q, L83I, R87K, S88A
VL: B5 VL with W100F
- Fold IC50 vs H3/L3 [3]: 0.34 fold

B22: AC10 H3/L3.60 (antibody, IgG1, name in Kabat numbering, V domains shown)
VH: B5 VH with V68F, T69V, I70F, T71S, M81L, E82Q, L83I, R87K, S88A
VL: B5 VL with D98F
- Fold IC50 vs H3/L3 [3]: 0.02 fold

B23: AC10 H1/L1 full length antibody (antibody, V domains shown)
VH: B5 VH
VL: B1 VL
- Fold KD vs WT [1]: 0.6 fold
- Kd [1]: 5.63 nM
- Fold IC50 vs WT [2]: 0.11 fold
- IC50 [2]: 27.7 nM

B24: AC10 H1/L0 full length antibody (antibody, V domains shown)
VH: B5 VH
VL: B5 VL with D9A, E17Q, N22S, T78N, N80H, S81P, L82V, A84E, V108L
- Fold KD vs WT [1]: 0.53 fold
- Kd [1]: 6.39 nM
- Fold IC50 vs WT [2]: 0.32 fold
- IC50 [2]: 9.77 nM

B25: AC10 H3/L3.53 (antibody, IgG1, name in Kabat numbering, V domains shown)
VH: B5 VH with V68F, T69V, I70F, T71S, M81L, E82Q, L83I, R87K, S88A
VL: B5 VL with N96S
- Fold IC50 vs H3/L3 [3]: 0.48 fold

B26: AC10 H0/L3 full length antibody (antibody, V domains shown)
VH: B2 VH
VL: B5 VL
- Fold KD vs WT [1]: 1.13 fold
- Kd [1]: 3 nM
- Fold IC50 vs WT [2]: 0.69 fold
- IC50 [2]: 4.61 nM
